Experimental data published in patent US20220002700A1, “COMPUTATIONALLY-OPTIMIZED ACE2 PEPTIDES FOR COMPETITIVE INTERCEPTION OF SARS-CoV-2” (priority 2020, published 2022).

Tested on: viruses pseudotyped with the SARS-CoV-2 S protein
Assay type: cell-based

B1: 23-mer (A2N)-CHIPΔTPR fusion (protein)
chain: QNKTFLDKFNHEAEDLFYQSSLAMRLNFGDDIPSALRIAKKKRWNSIEERRIHQESELHSYLSRLIAAERERELEECQRNHEGDEDDSHVRAQQACIEAKHDKYMADMDELFSQVDEKRKKRDIPDYLCGKISFELMREPCITPSGITYDRKDIEEHLQRVGHFDPVTRSPLTQEQLIPNLAMKEVIDAFISENGWVEDY
- reduction of the infection rate of the pseudovirus: ~60%
